experiment: yeast display, Sf9 membrane polyspecificity reagent, FACS + sequencing; frameworks hold sequencing errors
Outline: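 Using colony PCR, genes from sorted yeast display clones were amplified, then sequenced on MiSeq at 2 × 250 and filtered by CDR length. The clones had been stained with 10% biotinylated, detergent-solubilized Sf9 membrane reagent for 1 hour at 4 °C and sorted by FACS into low and high (top ~1%) gates on anti-HA and streptavidin fluorescence. Polyreactivity labels come from the gate of origin.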

Sequence	polyreactivity (PSR sort gate)
QVQLVESGGGLVQAGGSLRLSCAASGRTLARNAKGWYRQAPGKERELVASINGRTTRTYYADSVKGRFTISRDNAKNTVYLQMNSLKPEDTAVYYCAADPPGYVYGKRYYWGQGTQVTVSS	high polyreactivity
QVQHVESGGGLVQAGGSLRLSCAASGRTFTRYTMGWYRQAPGKERELVAAIRFSGGSTYYADSVKGRFTISRDNAKNTVYLQMNSLKPEDTAVYYCAATGGWYKHWFDYWGQGTQVTVSS	low polyreactivity
QVQLVESGGGLVQAGGSLRLSCAASGRTFRIYAMGWYRQAPGKERELVAAINSGGTTNYADSVKGRFTISRDNAKNTVYLQMISLKPEDTAVYYCAVRYWKTLSHFSYDYWGQGTQVTVSS	low polyreactivity
QVQLVESGGGLVQAGGSLRLSCAASGSIFTPYAMGWYRQAPGKERELVATISWSGGRTYYADSVKGRFTISRDNAMYTVYLQMYSLKPEDTAVYYCAARGYSSEYDYWGQGTQVTVSS	high polyreactivity
QVQLVESGGGLVQAGGSLRLSCAASGSIFAVYAMGWYRQAPGKERELVAVITRSGGSTYYADSVKGRFTISRDNAKNTFYLQMNSLKPEDTAVYYCAARTGYGYTRYEYWGQGTQVTVSS	high polyreactivity
QVQLVESGGGLVQAGGSLRLSCAASGLTFQWNAMGWYRQAPGKERELVAGITDIGDSTYYADSVKGRFTISRDNAKNTVYFQMNSLKPEDTAVYYCNATSGYKHAWRSENGYWGQGTQVTVSS	low polyreactivity
QVQLVESGGGLVQAGGILRLSCAASGSTFSSNAMGWYRQAPGKERELVAAISKRGGRTYYADSVKGRFTISRDNAKNTVYLQMNSLKPEDTAVYYCAAEYWVPAWKFGYEYWGQGTQVTVSS	high polyreactivity
QVQLVESGGGLVQAGGSLRLSCAASGSIFDDYAMGWYRQATGKERQLVAAISSSGTSTYYADSVKGRFTISRDNAKNTVYLQMNSLKPEDTAVYYCAARSAILKSGYLMDYWGQGTQVTVSS	low polyreactivity
QVQLVESGGGLVQAGGSLRLSCADSGSTFSPDAMGWYIQAPGKERALVAAIRYSGTSTYYADSVKGRFTISRDNAKKTVYLQMNSLKPEDTAVYYCNTVFKYQGVRPYGYWGQGTQVTVSS	high polyreactivity
QVQLVESGGGLVQAGGSLRLSCAASGRTFGHYAMGWYRQAPGKERELVAAITWTGGRTYYADSVKGRFTISRDNAKNTVYLQMNSLNPEVTAVYYCNTDRSFYYPAEYDYDYWGQGTQVTVSS	low polyreactivity
QLQLVESGGGLVQAGGSLRLSCAASGSIFTWYAMGWYRQAPGKERELVAAITRGGSTYADSVKGRFTISRDNAKNTVNLQMNSLKPEDTAVYYCNAVYGVYDFNYWGQGTQVTGSS	low polyreactivity
QVQLVESGGGLVQAGGSLRLSCAASGRIFYIYTMGWYILAPGKERELVAGITRAGSTNYADSVKGRFTISRDNAKNTVYLQMNSLKPEDTAVYYSNAYIWIYGFDYCGQGTQVTVSS	high polyreactivity
QVQLVESGGGLVQAGGSLRLSCAASGSTIDTYAMGWYRQAPGKERELVAAIRYTGGRTYYADSVKGRCTISSDNAKNTVYLHMNSLKPEDTAVYYCNADGTKWVRETYDYWGQGTQVTVSS	low polyreactivity
QVQLVESGGGLVQAGGSLRLSCAASGGIFQGNVMGWYRQAPGKERELVASIRRGGSTNYADSVKGRFTISRDNAKNTVYLQMNSLKPEDTAVYYCSARKWVGYHVWPLREYNYWGQGTQVTVSS	low polyreactivity
QVQLVESGGGLVQAGGSLRLSCADSGNIIWGNAIGWYRQAPGKERELVAAISRRSGSTYYADSVKGRFTISRDNAKNTVYLQMNSLKPEDTAVYYCNTAGRVGTYDYWGQGTQVTVSS	high polyreactivity
QVQLVESGGGLVQAGGSLRLSCAASGRTSHRNVMGWYRQAPGTEREVVARISRSGGRTYYADSVKGRFTISRDNAKNTVYSQMNSLKPEDTAVYYCNADYSSRGANYDYWGQGTQVTVSS	high polyreactivity
QVQLVESGGGLVQAGGSLRLSCAASGSIRSYAMGWYRQAPGKERELVAAITRSGGSTYYADSVKGLFTISRDNAKNTVYLQMNSLKPEDTAVYYCAARYTYSYPLFGSWGQGTQVTVSS	high polyreactivity
QVQLVESGGGLVQAGGSLRLSCAASGSIFHYYAMGWYRQAPGKERELVAAISWSGGRTYYADSVKGRFTISRDNAKNTVYLQMNSLKPEDTAVYYCAADYDGSFNTPYLLDPYDYWGQGTQVTVSS	high polyreactivity
EEELVESGGGLVQAGGSLLLSCAAYGRILPRNDMGWYRQAPGKERELVAVISSGGSTYYPDSVKGRFTISRDNAKNTVYLQINSVKPEDTAVYYCLGGYYYLQYDYWGQGTQVTVSS	low polyreactivity
QVQLVESGGGLVQAGGSLRLSCAASGFIFQIYPMGWYRQAPGKERELVAAISSGGSTNYADSVKGRFTISRDNAKNTVYLQMNSLKPEDTAVYYCAAATHYWYFYSFKDKSGFRGYYWGQGTQVTVSS	high polyreactivity
QVQLVESGGGLVQAGGSLRLSCAASGITFRGYTMGWYRQAPGKERELVARIRSSDGSTYYADSVKGRFTISRDNAKNTVYLQMNSLKPEDTAVYYCNADRRGRALKYYSWGQGTQVTVSS	low polyreactivity

Sequence	polyreactivity (PSR sort gate)
QVQLVESGGGLVQAGGSLRLSCAASGRTFRHYAMAWYRQAPGKERELVASIRWNGASTNYADSVKGRFTISRDNAKNTVYLQMNSLKPEDTAVYYCNARYLFYSGYVYWGQGTQVTVSS	high polyreactivity
QFQLVESGGGLVQEGGSLRISCAASGSIFNEYAMGWYRQAPGKERELVAAISTSGDITYYADSVKGRFTISLDTAKNTVYLQMNSLKPEDTAVYYCAAKYSLLRQYNRLDYWGQGTQVTVSS	low polyreactivity
QVQLVESGGGLVQAGGSLRLSCAASGSIFKPYAMGWYRQAPGKERELVAAISGIGGSTYYADSVKGRFTISRDNAKNTVYLQMNCLKPEDTAVYYCAADTFFKIFSEYNYWGQGTQVTVSS	high polyreactivity
QVQLVESGGGLVQAGGSLRLSCAASGRTMGQNVMGLYRQAPGKERELVAAISSNTAGNTYYADSVKGRFTISRDNAKNTVYLQMNSLKPEDTAVYYCAKVDSFEAKLDYWGQGTQVTVSS	low polyreactivity
QVQLVESGGGLVQAGGSLRLICAASGRIFYNNAMGWYRQARGKERELVAGISRSSGRTYYADSVTGRFTISRDNAKNTGYLQMNSLKPVDTAVYYCAADWHYRSTARRMGYWGQGTQVTVSS	high polyreactivity
QVQLVESGGGLVQAGGSLRLSCAPSGLIIWDYVMGWYRQAPGKERELVAAISRSGGRTYYADSVKGRFTISRDNAKNTVYLQMNSLKPEDTAVYYCAARVRFSYASRSGYWGQGTQVTVSS	high polyreactivity
QVQLVESGGGLVQAGGSLRLSCAASGRIFRRNTMGWYRQAPGKERELVAAITSSGGSTYADSVKGRFTISRDNAKNTVYLQMNSLTPEDTAVYYCATYVAYHRGYRTYDHWGQGTHVTVSS	low polyreactivity
QVQLVESGGGLVQAGGSLRLSCAASGRTFTYYGMGWYRQAPGKERELVAAITERGDSTYYADSVKGRFTISRDNAKNTVYLQMNSLKPEDTAVYYCAAAEHLTRPSSPTQDGDHWGQGTQVTVSS	low polyreactivity
QVQLVESGGGLVQAGGSLRLSCAASGFTLSAYAMGWYRQAPGKERELVAGISYTGGRTYYADSVKGRFTISRDNAKNTVYLQMNSLKPEDTAVYYCNKAWSGYYKYGYWGQGTQVNVSS	low polyreactivity
QVQLVESGGGLVQAGVSLRLRCAASASILSYYAMGWYRHAPGKERELVAAISRSGCTTYYADSVKGRFTISRDYAKNTVYLQMNSLIPEDTAVYYCAAVDRYYAYRDYYYWGQGTQVTVSS	high polyreactivity
QVQLVESGGGLVQAGGSLRLSCAASGSTFFHYPMGWYIQATGKERELVAAISWSGGRTSYADSVKGRFTISRDNAKNTVYLQKNSLKPEDTAVYYCAARGRYKDVYRMDYWGQGTQVTVSS	high polyreactivity
QVQLVESGGLLVQAGGSLRLRGAASGSTIPRNAMGWYRQAPGKERELVASITSDGGSTYYADSVKGRFTISRDNAQITVYLQMNSLNPEDTAVYYFNAYTRYGLFAYDYWGQGTQVTVSS	high polyreactivity
QVQLVESGGGLVQAGGSLRLSCAASGSTIFGNVMGWYRQAPGKERELVAVITNRGGSTYYADSVKGRFTISRDNAKNTVYLQMNSLKPEDTAVYYCATRSRPRSYYYWGQGTQVTVSS	high polyreactivity
QVQLVESGGGLVQAGGSLRLSCAASGRIIRINAMGSYRPAPGKERELVAAITRGGTTYADSVKGRFTISRDNAKNTVYLQMTSLIPEDTSVYNCNARTGRSPSGFRYWGQGTQVTVSS	high polyreactivity
QVQLVESGGGLVQAGGSLRLSCAASGRTFKYYAMGWYRQAPGKERELVATISFRGGSTYYADSVKGRFTISRDNAKNTVYLQMNSLKPEDTAVYYCAATTPYYTPRRRNDYWGQGTQVTVSS	high polyreactivity
QVQLVDSGGGLVQAGGSLRLSCAASGYTFVPYAMGWYRQAPGKERELVAAISSSGGDTYYADSVKGRFTISRDNAKTTVYLQLNSLKPEDTAVYYCNTGVYVWQYWYYGFDYWGQGTQVTVSS	low polyreactivity
QVQLVESGGGLVQAGGSLRLSCAASGLTFSDYTMGWYRQAPGKERELVAAISDSTGSTYYADSVKGRFTMSRDNAKNTVYLQMNSLKPEDTAVYNCIAYGYYHRLYSYTYGYWGQGTQVTVSS	low polyreactivity
QVQLVESGGGLVQAGGSLRLSCAASGSTFVVNDMGWYRQAPGKDRELVASITAGGSTYYADSVKGRFTISRDNAKNTVNLQMNSLKPEDTAVYYCAKVQDRAYLPHQRGRERDYDYWGQGTQVTVSS	low polyreactivity
QVQLVESGGGVVQAGGSLRLSCAASGGIFRRNAMGWYRQAPGKERELVAAITRSGASTYDADSVKGRFTISRDNAKYTVYLQMNSLKPEDTAVYYCADAQLSAEYDYWGQGTQVTVTS	low polyreactivity
QVQLVESGGGLVQAGGSLRLSCAASGSIFGGYTMGWYRQAPGKERELVAAISARGGNTYYADSVKGRFTISRDNAKNTVYLQMNSLKPEDTAVYYCAKVRYTQSYRGYGYWGQGTQVTVSS	high polyreactivity
